Assay [1] has as its target T1, RBD WT (original Wuhan) (SARS-CoV-2, UniProt P0DTC2 319-541).
The target of assay [2] is T1, RBD WT (original Wuhan). The source holds these as a separate data set.
The target of assay [3] is T1, RBD WT (original Wuhan). The source holds these as a separate data set.
The target of assay [4] is T1, RBD WT (original Wuhan). This is another data set of the same source.
The target of assay [5] is T1, RBD WT (original Wuhan). This is another data set of the same source.

Like-named read-outs stand apart in the source and are kept apart here.

These results are taken from patent EP4545559A2 (INSTITUTO BUTANTAN, dated 2025).

B1: Monoclonal antibody S.9.2.D7 (antibody, V domains shown)
VH: EVQLLESGGGLIQTGGSLRLSCAASGFTFSSYAMSWVRQAPGKGLEWVSVISDSGGSTYYADSVKGRLTISRDNSKNTLYVQMNSLRAEDTAVYYCAKGKGGIAAAGPAFLFDYWGQGTLVTVSS
VL: DIQMTQSPSLLSASAGDRVTISCRMSQGISSYLAWYQQKPGKAPELLISSASTLQSGVPSRFSGSGSGTDFTLTISYLQSEDFATYYCQQYYSFPTTFGGGTKVEIK
notes: also called mAb S.9.2.D7
What is called Kd is the equilibrium constant for the complex coming apart. High values mean weaker binding, low ones tighter binding. With B1, binding in the assay with RBD WT (original Wuhan) [1] was put at a Kd of 4.85 nM.

B2: Monoclonal antibody S.9.4.C7 (antibody, V domains shown)
VH: QVQLVESGGGVVQPGRSLRLSCAASGFTFRNYAMHWVRQAPGKGLEWVTVISYDGSDKYYADSVKGRFTISRDNSKNTLYLQMNSLRAEDTAVYYCAKDPVGGYCSGGRCYFHSHYFDYWGQGTLVTVSS
VL: NFMLTQPHSVSESPGKTVTISCTRSSGSIASYYVQWYQQRPGSSPTTVISEDNQRPSGVPDRFSGSIDSSSNSASLTISGLKTEDEADYYCQSYDSNNHVIFGGGTKLTVL
notes: also called mAb S.9.4.C7
In turn, B2 came in with a Kd with RBD WT (original Wuhan) [2] of 0.0407 nM.

B3: Monoclonal antibody S.9.1.C9 (antibody, V domains shown)
VH: QVQLVESGGGVVQPGRSLGLSCAVSGFTFSNYGMDWVRQAPGKGLEWVAVTSYDGSNKYYADSVKGRFTISRDNSKNTLYLQMNSLRTEDTAVYYCAKHGGGPYCGGGTCYLAYFDYWGQGTLVTVSS
VL: DIQMTQSPSSLSASVRDRVTITCQASQDISKFLNWYQQKPGKAPKLLIYDASNLETGVPSRFSGSGSGTDFTFTISSLQPEDIATYYCQQYDNLPITFGQGTRLEIKR
notes: also called mAb S.9.1.C9
Molecule B3 gave a Kd with RBD WT (original Wuhan) [3] of 0.214 nM.

B4: Monoclonal antibody S.9.4.F4 (antibody, V domains shown)
VH: QVQLVESGGGVVQPGRSLRLSCAASGFTFSHYGMHWVRQAPGKGLEWVAVILYDGSNEYYADSVKGRFTISRDNSKNTLYLQMNSLRAEDTAVYYCAKGAGTYCSGGNCYVAYFDYWGQGTLVTVSS
VL: AIRMTQSPSSLSASVGDRVTITCQASQDISNYLNWYQQKPGKAPKLLIYDASNLETGVPSRFSGSGSGTDFTVTISSLQPEDFATYYCQQYDNLPLTFGGGTKVEIK
notes: also called mAb S.9.4.F4
For B4, the Kd with RBD WT (original Wuhan) [4] was ~0.0336 nM.

B5: Monoclonal antibody S.9.2.B8 (antibody, V domains shown)
VH: EVQLVETGGGLIQPGGSLRLSCAASGLIVSSNYMTWVRQAPGKGLEWVSVLYSGGTTYYADSVKGRVTISRDNSKNTLYLQVNSLTVADTAVYYCARDLADRGGMDVWGQGTTVTVSS
VL: SYELTQPPSVSVAPGQTARITCGGNNIGSQSVHWYQQKPGQAPVLVVYDDSDRPSGIPERFSGSKSGNMATLTISRVEAGDEADYYCQVWDSSSDHVVFGGGTKLTVL
notes: also called mAb S.9.2.B8
For the molecule B5, in the assay with RBD WT (original Wuhan) [5], binding was put at a Kd of 1.99 nM.
